The values that follow come from US20240018502.

The target of series [1] is cynomolgus monkey complement protein C3 (endogenous, in vitreous humor).
For series [2], the target named is human complement protein C3.
For series [3], the target named is complement protein C3 of cynomolgus monkey plasma.
Series [4] addresses T1, quenched fluorescence peptidic substrate containing SKGR/SL (P4-P2' of the PAR-2 activation cleavage site, Ser 33 to Leu 38).
T1 chain: SKGRSL

B1: Modified MTSP-1 protease domain Q38H/I41S/D60bT/F60eS/Y60gW/D96K/F97G/ins97aV/T98P/F99L/C122S/G151H/Q175L/Q192D (protein)
chain: VVGGTDADEGEWPWQVSLHALGHGHSCGASLISPNWLVSAAHCYIDTRGSRWSDPTQWTAFLGLHDQSQRSAPGVQERRLKRIISHPFFNKGVPLDYDIALLELEKPAEYSSMVRPISLPDASHVFPAGKAIWVTGWGHTQYGGTHALILQKGEIRVINQTTCENLLPQLITPRMMCVGFLSGGVDSCDGDSGGPLSSVEADGRIFQAGVVSWGDGCAQRNKPGVYTRLPLFRDWIKENTGV
With B1, the “C3 levels in vitreous humor by ELISA after one intravitreal dose of 125 ug” value in series [1] was “C3 was undetectable in the variant-treated eye 1, 2, 6, and 7 days after the single injection of the anti-C3 MTSP polypeptide”. Further, in series [2], the “ED50 of cleavage of human C3” value is “cleaves human C3 in the assay described herein with an ED50 of 2 nM”; the “anti-C3 activity, fold increase owed to D60bT (against the variant with this residue reverted to wild type)” value is “D60bT-This mutation increases anti-C3 activity by approximately 2.8-fold”; the “anti-C3 activity, fold increase owed to D96K (against the variant with this residue reverted to wild type)” value is listed as “D96K-This mutation increases anti-C3 activity by approximately 2.6-fold”; the “anti-C3 activity, fold increase owed to F60eS (against the variant with this residue reverted to wild type)” value is on record as “F60eS-This mutation increases anti-C3 activity by approximately 1.9-fold”. Besides, in series [2], the “anti-C3 activity, fold increase owed to F97G (against the variant with this residue reverted to wild type)” value is “F97G-This mutation increases anti-C3 activity by approximately 4.3-fold and increases substrate specificity”; the “anti-C3 activity, fold increase owed to F99L (against the variant with this residue reverted to wild type)” value was “F99L: This mutation increases anti-C3 activity by approximately 3.9-fold”; the “anti-C3 activity, fold increase owed to G151H (against the variant with this residue reverted to wild type)” value was “G151H: This mutation increases anti-C3 activity by approximately 1.2-fold”; the “anti-C3 activity, fold increase owed to I41S (against the variant with this residue reverted to wild type)” value is recorded as “I41S-This mutation increases anti-C3 activity by approximately 44.6-fold”. Also, in series [2], the “anti-C3 activity, fold increase owed to Q38H (against the variant with this residue reverted to wild type)” value is given as “Q38H-This mutation increases C3 activity by approximately 3.7-fold”; the “anti-C3 activity, fold increase owed to Q175L (against the variant with this residue reverted to wild type)” value is “Q175L: This mutation increases anti-C3 activity by approximately 4.3-fold”; the “anti-C3 activity, fold increase owed to T98P (against the variant with this residue reverted to wild type)” value is on record as “T98P: This mutation ... increases anti-C3 activity by approximately 2.2-fold”; the “anti-C3 activity, fold increase owed to Y60gW (against the variant with this residue reverted to wild type)” value is “Y60gW-This mutation increases the enzyme's substrate specificity and increases anti-C3 activity by approximately 4.8-fold”. In addition, in series [2], the “anti-C3 activity, fold increase owed to the insertion 97aV (against the variant without the insertion)” value is “Insert 97aV: This mutation ... increases anti-C3 activity by approximately 1.7-fold” and the “reduction of hemolytic activity (C3H50) after preincubation of C3 with the variant” value is on record as “reduces the hemolytic activity of the serum by approximately 80%”.

B2: Q38H/I41S/D60bT/F60eS/Y60gW/D96K/F97D/ins97aA/T98P/F99L/C122S/G151N/Q175L/Q192D (protein)
chain: VVGGTDADEGEWPWQVSLHALGHGHSCGASLISPNWLVSAAHCYIDTRGSRWSDPTQWTAFLGLHDQSQRSAPGVQERRLKRIISHPFFNKDAPLDYDIALLELEKPAEYSSMVRPISLPDASHVFPAGKAIWVTGWGHTQYGGTNALILQKGEIRVINQTTCENLLPQLITPRMMCVGFLSGGVDSCDGDSGGPLSSVEADGRIFQAGVVSWGDGCAQRNKPGVYTRLPLFRDWIKENTGV
B2 returned an ED50 80% cynomolgus plasma (nM), C3 cleavage, C3 ELISA in series [3] of 37 nM. Also, the SKGR/SL kcat/Km in series [4] was determined as 2060 M⁻¹ s⁻¹. The same protein displayed an ED50 80% human plasma (60 min, nM), C3 cleavage in series [2] of 44 nM.

B3: Q38H/I41S/D60bT/F60eS/Y60gW/D96V/F97G/ins97aV/T98P/F99L/C122S/G151H/Q175L/Q192D (protein)
chain: VVGGTDADEGEWPWQVSLHALGHGHSCGASLISPNWLVSAAHCYIDTRGSRWSDPTQWTAFLGLHDQSQRSAPGVQERRLKRIISHPFFNVGVPLDYDIALLELEKPAEYSSMVRPISLPDASHVFPAGKAIWVTGWGHTQYGGTHALILQKGEIRVINQTTCENLLPQLITPRMMCVGFLSGGVDSCDGDSGGPLSSVEADGRIFQAGVVSWGDGCAQRNKPGVYTRLPLFRDWIKENTGV
For B3, the ED50 80% cynomolgus plasma (nM), C3 cleavage, C3 ELISA in series [3] is 103 nM. The protein also yielded an SKGR/SL kcat/Km in series [4] of 4990 M⁻¹ s⁻¹. This protein also had an ED50 80% human plasma (60 min, nM), C3 cleavage in series [2] of 27 nM.

B4: Q38H/I41S/D60bT/F60eS/Y60gW/D96K/F97G/ins97aV/T98P/F99L/C122S/G151H/Q175L/Q192D (protein)
chain: VVGGTDADEGEWPWQVSLHALGHGHSCGASLISPNWLVSAAHCYIDTRGSRWSDPTQWTAFLGLHDQSQRSAPGVQERRLKRIISHPFFNKGVPLDYDIALLELEKPAEYSSMVRPISLPDASHVFPAGKAIWVTGWGHTQYGGTHALILQKGEIRVINQTTCENLLPQLITPRMMCVGFLSGGVDSCDGDSGGPLSSVEADGRIFQAGVVSWGDGCAQRNKPGVYTRLPLFRDWIKENTGV
On to B4, for which the ED50 80% cynomolgus plasma (nM), C3 cleavage, C3 ELISA in series [3] came out at 92 nM. In series [4], this protein gave an SKGR/SL kcat/Km of 6210 M⁻¹ s⁻¹. Further, in series [2], the C3H50 Hemolytic Activity (U/mL), C3-depleted serum plus purified C3; Test Condition #1 (C3 and 8 nM test article incubated separately, no pre-cleavage) worked out at 470 U/mL; the C3H50 Hemolytic Activity (U/mL), C3-depleted serum plus purified C3; Test Condition #1 (C3 and 40 nM test article incubated separately, no pre-cleavage) is 594 U/mL; the C3H50 Hemolytic Activity (U/mL), C3-depleted serum plus purified C3; Test Condition #1 (C3 and 200 nM test article incubated separately, no pre-cleavage) came out at 438 U/mL; the C3H50 Hemolytic Activity (U/mL), C3-depleted serum plus purified C3; Test Condition #2 (C3 pre-incubated 2 h at 37 C with 8 nM test article) was found to be 295 U/mL. Also, in series [2], the C3H50 Hemolytic Activity (U/mL), C3-depleted serum plus purified C3; Test Condition #2 (C3 pre-incubated 2 h at 37 C with 40 nM test article) is 97.9 U/mL; the C3H50 Hemolytic Activity (U/mL), C3-depleted serum plus purified C3; Test Condition #2 (C3 pre-incubated 2 h at 37 C with 200 nM test article) came to 73.7 U/mL; the CH50 hemolytic activity (U/mL), human citrated plasma after 1 h at 37 C with 3.2 nM test article is 73 U/mL; the CH50 hemolytic activity (U/mL), human citrated plasma after 1 h at 37 C with 16 nM test article amounted to 69 U/mL. In series [2], this protein displayed a CH50 hemolytic activity (U/mL), human citrated plasma after 1 h at 37 C with 80 nM test article of 41.5 U/mL; a CH50 hemolytic activity (U/mL), human citrated plasma after 1 h at 37 C with 400 nM test article of 10.8 U/mL; a CH50 hemolytic activity (U/mL), human citrated plasma after 1 h at 37 C with 2000 nM test article of 5.56 U/mL; an ED50 80% human plasma (60 min, nM), C3 cleavage of 25 nM.
